# Measurements from patent US7332473B2, “Peptides and medicinal compositions containing the same” (priority 2002, dated 2008).
# Square brackets hold non-standard residues; d marks the D form. Ends that are not written are not given here. Met(O) = CS(=O)CC[C@H](N)C(=O)O
# Assays:
# [1] = Helical content from circular dichroism spectra; type: physicochemical; conditions: 20 mM Tris-HCl buffer (pH 7.4), calculation by Greenfield et al.
# Procedure: VIP (peptide 1, SEQ ID NO: 2), peptide 7 (SEQ ID NO: 8) corresponding to 25 residues at the N-terminus of VIP, and peptide 8 (SEQ ID NO: 9), which is a peptide 7 derivative with its methionine-17 being oxidized, were dissolved in a 20 mM Tris-HCl buffer (pH 7.4), and the circular dichroism spectra thereof were examined using the Jasco J-720 (Jasco Corporation). According to analytical calculation of higher-order structure by Greenfield et al., the helical content of peptide 1 was about 50% (FIG. 2).
# [2] = tested on: murine gastric smooth muscles; experiment: Inhibition of carbachol-induced constriction of murine gastric smooth muscle (Magnus apparatus); set-up: species or system ICR mice; conditions: final concentration 10^−6 M, peptide 1 = 100%
substance,measurement,setting,value
His-Ser-Asp-Ala-Val-Phe-Thr-Asp-Asn-Tyr-Thr-Arg-Leu-Arg-Lys-Gln-Met(O)-Ala-Val-Lys-Lys-Tyr-Leu-Asn-Ser-NH2 (HSDAVFTDNYTRLRKQ[Met(O)]AVKKYLNS-NH2; N-terminus assumed; SMILES CC(C)C[C@H](NC(=O)[C@H](Cc1ccc(O)cc1)NC(=O)[C@H](CCCCN)NC(=O)[C@H](CCCCN)NC(=O)[C@@H](NC(=O)[C@H](C)NC(=O)[C@H](CCS(C)=O)NC(=O)[C@H](CCC(N)=O)NC(=O)[C@H](CCCCN)NC(=O)[C@H](CCCNC(=N)N)NC(=O)[C@H](CC(C)C)NC(=O)[C@H](CCCNC(=N)N)NC(=O)[C@@H](NC(=O)[C@H](Cc1ccc(O)cc1)NC(=O)[C@H](CC(N)=O)NC(=O)[C@H](CC(=O)O)NC(=O)[C@@H](NC(=O)[C@H](Cc1ccccc1)NC(=O)[C@@H](NC(=O)[C@H](C)NC(=O)[C@H](CC(=O)O)NC(=O)[C@H](CO)NC(=O)[C@@H](N)Cc1c[nH]cn1)C(C)C)[C@@H](C)O)[C@@H](C)O)C(C)C)C(=O)N[C@@H](CC(N)=O)C(=O)N[C@@H](CO)C(N)=O) [Peptide 8],helical content,[1],reduced to about half that of peptide 1
same,"maximal inhibition of murine gastric smooth muscle constriction (activity, in words)",[2],significantly attenuated compared to that of peptide 7
